Data reported in publication PMC6721692, “Extracellular Juxtamembrane Motif Critical for TrkB Preformed Dimer and Activation” (Cells, 2019).

Biological target: the molecule itself
Assay: native gel or EMSA; native PAGE (no SDS, no β-ME) of lysates of CHO-TrkBdelECD365-eGFP cells treated with vehicle, BDNF or MM12 (1.0 nM, 37 °C); Western blot with MM12

B1: TrkBdelECD365-eGFP (human truncated TrkB lacking the ECD up to residue 365, EJM retained) (domain or fragment)
chain: not shown
notes: EJM, transmembrane and intracellular parts retained; amplified from pGFP-hTrkB with the printed primers; The signal peptide of the vector pGFP-hTrkB is not described; also called hTrkBdelECD365-eGFP; TrkB lacking ECD365; source: CHO cells, stably transfected (CHO-TrkBdelECD365-eGFP), in lysate; not shown: eGFP, C-terminal, kept
- stoichiometry N: 2
